Series [1] concerns the target vitamin D3 hydroxylase (VDH) of Pseudonocardia autotrophica NBRC12743 strain (Pseudonocardia autotrophica) (UniProt C4B644). In words: cell-based or functional assay.
Series [2] deals with T1, vitamin D3 hydroxylase (VDH) of Pseudonocardia autotrophica NBRC12743 strain.
T1 chain: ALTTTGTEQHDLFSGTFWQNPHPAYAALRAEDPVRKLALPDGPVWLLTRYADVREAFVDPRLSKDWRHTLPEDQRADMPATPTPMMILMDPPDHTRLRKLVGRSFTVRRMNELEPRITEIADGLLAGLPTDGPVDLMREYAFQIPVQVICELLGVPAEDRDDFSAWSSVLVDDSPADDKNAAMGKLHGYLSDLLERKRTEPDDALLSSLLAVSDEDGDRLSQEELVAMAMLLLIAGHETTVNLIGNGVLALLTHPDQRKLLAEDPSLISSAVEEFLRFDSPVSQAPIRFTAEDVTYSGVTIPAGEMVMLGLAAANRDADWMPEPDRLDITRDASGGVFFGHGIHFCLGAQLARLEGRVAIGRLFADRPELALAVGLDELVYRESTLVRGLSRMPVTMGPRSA

The target of series [3] is T2, ferredoxin (ThcC) derived from Rhodococcus erythropolis strain NI86/21, P43493.
T2 chain: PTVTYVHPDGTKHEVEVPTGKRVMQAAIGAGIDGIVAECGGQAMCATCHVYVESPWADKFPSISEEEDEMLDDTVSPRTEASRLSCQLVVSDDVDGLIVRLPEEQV

On to “ferredoxin (ThcC) derived from Rhodococcus erythropolis strain NI86/21 (from UniProt P43493 2-107)”, for which the relative activity per expressed VDH, against the transformant expressing VDH solely in series [1] was determined as 6 fold.

B1: ferredoxin reductase (ThcD) derived from Rhodococcus erythropolis strain NI86/21 (protein)
chain: SIVIIGSGQAGFEAAVSLRSHGFSGTITLVGDEPGVPYQRPPLSKAYLHSDPDRESLALRPAQYFDDHRITLTCGKPVVRIDRDAQRVELIDATAIEYDHLILATGARNRLLPVPGANLPGVHYLRTAGEAESLTSSMASCSSLVVIGAGFIGLEVAAAARKKGLDVTVVEAMDRPMARALSSVMSGYFSTAHTEHGVHMRLSTGVKTINAADGRAAGVTTNSGDVIHADAVVVGIGVVPNIELAALTGLPVDNGIVVDEYLRTPDENISAIGDCAAYPIPGKAGLVRLESVQNAVDQARCLAAQLTGTSTHYRSVPWFWSEQYESKLQMAGLTAGADTHVVRGSVDSGVFSIFCFLGTRLLGVESVNKPRDHMAARKILATEMPLTPEQAADTDFDLKLAIARHKDTHKDEVASADIGERQVVAS
Take B1: in series [2], the Activity (mmol/min/mol of VDH), VD3 conversion by Rhodococcus erythropolis transformant pTipQT-VDH-thcCD (mmol/min/mol of VDH) turned out to be 119 and the relative activity per expressed VDH, against the transformant expressing VDH solely worked out at 6 fold.

B2: vitamin D3 hydroxylase (VDH) of Pseudonocardia autotrophica NBRC12743 strain (protein)
chain: T1 chain
In series [3], B2 returned an Activity (mmol/min/mol of VDH), VD3 conversion by Rhodococcus erythropolis transformant pTipQT-VDH-thcCD (mmol/min/mol of VDH) of 119.
